From patent US10618965 (dated 2020) come the findings set out here.

The term Kd denotes the free concentration of one partner at which half of the binding sites on the other are occupied at equilibrium, for simple one-to-one binding. Read a high Kd as weaker binding.

Test [1] deals with T1, mouse FcRn (mouse, UniProt Q61559).
T1 chain 1: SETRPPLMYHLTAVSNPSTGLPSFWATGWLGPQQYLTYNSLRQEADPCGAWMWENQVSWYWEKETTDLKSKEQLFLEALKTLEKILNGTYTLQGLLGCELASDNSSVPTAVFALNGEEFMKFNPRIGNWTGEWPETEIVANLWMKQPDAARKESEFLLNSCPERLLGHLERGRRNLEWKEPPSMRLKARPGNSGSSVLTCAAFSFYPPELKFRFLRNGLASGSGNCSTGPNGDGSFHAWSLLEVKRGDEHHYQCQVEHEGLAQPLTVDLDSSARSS
T1 chain 2: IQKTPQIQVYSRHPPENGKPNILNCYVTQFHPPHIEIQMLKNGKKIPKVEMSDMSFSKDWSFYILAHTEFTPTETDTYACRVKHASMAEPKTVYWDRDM
Description: SPR, pH 7.0. A general note: Surface plasmon resonance follows binding to a sensor surface in real time, without labels.

For test [2], the target named is T2, human FcgRIIa(R) (human).
T2 chain: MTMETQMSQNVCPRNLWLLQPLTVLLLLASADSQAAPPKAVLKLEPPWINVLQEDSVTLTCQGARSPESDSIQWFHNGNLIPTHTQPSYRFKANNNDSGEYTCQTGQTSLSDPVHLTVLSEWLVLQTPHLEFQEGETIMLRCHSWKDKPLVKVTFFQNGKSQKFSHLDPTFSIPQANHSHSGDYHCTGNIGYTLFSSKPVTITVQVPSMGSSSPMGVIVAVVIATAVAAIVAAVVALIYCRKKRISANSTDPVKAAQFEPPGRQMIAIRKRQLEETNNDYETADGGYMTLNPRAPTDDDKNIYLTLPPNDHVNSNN
Description: SPR.

Test [3] concerns the target T2, human FcgRIIa(R). Description: SPR.
For test [4], the target named is T3, human FcgRIIb (human).
T3 chain: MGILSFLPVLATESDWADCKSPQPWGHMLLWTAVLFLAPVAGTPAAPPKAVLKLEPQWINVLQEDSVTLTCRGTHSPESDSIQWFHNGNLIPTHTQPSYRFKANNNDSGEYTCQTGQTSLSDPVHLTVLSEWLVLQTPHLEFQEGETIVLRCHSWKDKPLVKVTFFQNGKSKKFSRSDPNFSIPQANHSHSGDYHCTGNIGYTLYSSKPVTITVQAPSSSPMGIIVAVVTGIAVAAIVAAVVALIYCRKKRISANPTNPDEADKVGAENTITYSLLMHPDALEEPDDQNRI
Description: SPR.

Test [5] concerns the target human FcgRIa (human). Description: SPR.
For test [6], the target named is T3, human FcgRIIb. Description: SPR.
Test [7] has as its target human FcgRIa (human). Description: SPR. This is another data set of the same source.
Test [8] has as its target human FcRn (with beta2-microglobulin) (human). Description: SPR, pH 7.0.
Test [9] has the same target. Description: SPR, pH 7.0. This is another data set of the same source.

Like-named read-outs stand apart in the source and are kept apart here.

Chain of human FcRn (with beta2-microglobulin) (human) (chain, as listed by the source, chain 1 of 2): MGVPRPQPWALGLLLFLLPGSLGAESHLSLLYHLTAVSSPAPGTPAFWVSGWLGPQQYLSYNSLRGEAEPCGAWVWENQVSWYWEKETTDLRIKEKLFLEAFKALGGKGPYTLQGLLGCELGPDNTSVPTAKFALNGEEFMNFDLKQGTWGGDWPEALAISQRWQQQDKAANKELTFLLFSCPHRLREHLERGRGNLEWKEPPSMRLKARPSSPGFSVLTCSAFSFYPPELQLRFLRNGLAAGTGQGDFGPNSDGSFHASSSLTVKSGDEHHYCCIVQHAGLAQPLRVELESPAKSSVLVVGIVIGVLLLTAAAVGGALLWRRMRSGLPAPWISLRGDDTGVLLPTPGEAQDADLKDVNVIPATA
Chain of human FcRn (with beta2-microglobulin) (human) (chain, as listed by the source, chain 2 of 2): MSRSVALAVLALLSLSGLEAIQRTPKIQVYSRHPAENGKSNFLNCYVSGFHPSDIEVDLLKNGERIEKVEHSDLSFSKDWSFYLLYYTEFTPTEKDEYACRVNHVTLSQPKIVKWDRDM
Chain of human FcgRIa (human) (chain, as listed by the source): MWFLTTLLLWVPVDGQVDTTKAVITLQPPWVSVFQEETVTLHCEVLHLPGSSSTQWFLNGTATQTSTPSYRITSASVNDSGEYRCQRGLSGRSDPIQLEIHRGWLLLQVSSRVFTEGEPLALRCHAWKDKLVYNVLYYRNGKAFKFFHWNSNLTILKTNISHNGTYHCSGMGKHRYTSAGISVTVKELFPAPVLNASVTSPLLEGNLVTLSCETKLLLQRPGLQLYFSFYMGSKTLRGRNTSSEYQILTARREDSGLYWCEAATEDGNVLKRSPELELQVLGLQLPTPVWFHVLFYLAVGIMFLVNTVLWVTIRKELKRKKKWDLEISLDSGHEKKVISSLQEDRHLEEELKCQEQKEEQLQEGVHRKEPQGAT

B1: mF40 (antibody)
chain 1: DVQLQESGPVLVKPSQSLSLTCTVTGYSITSDHAWSWIRQFPGNKLEWMGYISYSGITTYNPSLKSRISITRDTSKNQFFLQLNSVTTGDTSTYYCARSLARTTAMDYWGQGTSVTVSSAKTTPPSVYPLAPGSAAQTNSMVTLGCLVKGYFPEPVTVTWNSGSLSSGVHTFPAVLQSDLYTLSSSVTVPSSTWPSETVTCNVAHPASSTKVDKKIVPRDCGCKPCICTVKEVSKVFIFPPKPKDVLYITLEPKVTCVVVDISKDDPEVQFSWFVDDVEVHTAQTQPREEQFNSTFRSVSELPIMHQDWLNGKEFKCRVNSAAFPAPIEKTISKTKGRPKAPQVYTIPPPKEQMAKDKVSLTCMITDFFPEDITVEWQWNGQPAENYKNTQPIMDTDGSYFVYSKLNVQKSNWEAGNTFTCSVLHEGLHWHHTEKSLSHSPGK
chain 2: not shown
In test [1], B1 showed a Kd of 3.2 nM.

B2: mF38 (antibody)
chain 1: DVQLQESGPVLVKPSQSLSLTCTVTGYSITSDHAWSWIRQFPGNKLEWMGYISYSGITTYNPSLKSRISITRDTSKNQFFLQLNSVTTGDTSTYYCARSLARTTAMDYWGQGTSVTVSSAKTTPPSVYPLAPGSAAQTNSMVTLGCLVKGYFPEPVTVTWNSGSLSSGVHTFPAVLQSDLYTLSSSVTVPSSTWPSETVTCNVAHPASSTKVDKKIVPRDCGCKPCICTVPEVSSVFIFPPKPKDVLYITLEPKVTCVVVDISKDDPEVQFSWFVDDVEVHTAQTQPREEQFNSTFRSVSELPIMHQDWLNGKEFKCRVNSAAFPAPIEKTISKTKGRPKAPQVYTIPPPKEQMAKDKVSLTCMITDFFPEDITVEWQWNGQPAENYKNTQPIMDTDGSYFVYSKLNVQKSNWEAGNTFTCSVLHEGLHWHHTEKSLSHSPGK
chain 2: not shown
Molecule B2 showed a Kd in [1] of 4 nM.

B3: mF39 (antibody)
chain 1: DVQLQESGPVLVKPSQSLSLTCTVTGYSITSDHAWSWIRQFPGNKLEWMGYISYSGITTYNPSLKSRISITRDTSKNQFFLQLNSVTTGDTSTYYCARSLARTTAMDYWGQGTSVTVSSAKTTPPSVYPLAPGSAAQTNSMVTLGCLVKGYFPEPVTVTWNSGSLSSGVHTFPAVLQSDLYTLSSSVTVPSSTWPSETVTCNVAHPASSTKVDKKIVPRDCGCKPCICTVKEVSKVFIFPPKPKDVLYITLEPKVTCVVVDISKDDPEVQFSWFVDDVEVHTAQTQPREEQFNSTFRSVSELPIMHQDWLNGKEFKCRVNSAAFPAPIEKTISKTKGRPKAPQVYTIPPPKEQMAKDKVSLTCMITDFFPEDITVEWQWNGQPAENYKNTQPIMDTDGSYFVYSKLNVQKSNWEAGNTFTCSVLHEGLKNHHTEKSLSHSPGK
chain 2: not shown
B3 came in with a Kd in test [1] of 21 nM.

B4: IL6R-BF648 (antibody)
chain 1: not shown
chain 2: DIQMTQSPSSLSASVGDRVTITCRASQDISSYLNWYQQKPGKAPKLLIYYTSRLHSGVPSRFSGSGSGTDFTFTISSLQPEDIATYYCQQGNTLPYTFGQGTKVEIK
Consider B4, for which the Kd in test [2] was determined as 15000 nM; in test [3], 15000 nM; in [4] it was 1200 nM; in test [5], 11 nM; in [6], 1200 nM; in test [7] it was 11 nM.

B5: IgG1-F140 (antibody)
chain 1: QVQLQESGPGLVKPSETLSLTCAVSGHSISHDHAWSWVRQPPGEGLEWIGFISYSGITNYNPSLQGRVTISRDNSKNTLYLQMNSLRAEDTAVYYCARSLARTTAMDYWGEGTLVTVSSASTKGPSVFPLAPSSKSTSGGTAALGCLVKDYFPEPVTVSWNSGALTSGVHTFPAVLQSSGLYSLSSVVTVPSSSLGTQTYICNVNHKPSNTKVDKKVEPKSCDKTHTCPPCPAPELLGGPKVFLFPPKPKDTLYISRTPEVTCVVVDVSHEDPEVKFNWYVDGVEVHNAKTKPREEQYNSTYRVVSVLTPLHQDWLNGKEYKCKVSNKALPAPIEKTISKAKGQPREPQVYTLPPSRDELTKNQVSLTCLVKGFYPSDIAVEWESNGQPENNYKTTPPVLDSDGSFFLYSKLTVDKSRWQQGNVFSCSVMHEALHYHYTQKSLSLSP
chain 2: not shown
As for B5, the Kd in test [8] and in [9] was 36 nM in each case.
